Measured values from US20230265215A1 (OMEROS, published 2023).

What was measured:
MASP-1 = biological target: T1, MASP-1 (human, UniProt P48740 20-699, limits assumed); assay: solid phase ELISA, against human MASP-2 as reference
T1 construct: Species read from 'Recombinant human MASP-2 or C1r, C1s, CFD, MASP-1 and MASP-3'
T1 sequence (looked up): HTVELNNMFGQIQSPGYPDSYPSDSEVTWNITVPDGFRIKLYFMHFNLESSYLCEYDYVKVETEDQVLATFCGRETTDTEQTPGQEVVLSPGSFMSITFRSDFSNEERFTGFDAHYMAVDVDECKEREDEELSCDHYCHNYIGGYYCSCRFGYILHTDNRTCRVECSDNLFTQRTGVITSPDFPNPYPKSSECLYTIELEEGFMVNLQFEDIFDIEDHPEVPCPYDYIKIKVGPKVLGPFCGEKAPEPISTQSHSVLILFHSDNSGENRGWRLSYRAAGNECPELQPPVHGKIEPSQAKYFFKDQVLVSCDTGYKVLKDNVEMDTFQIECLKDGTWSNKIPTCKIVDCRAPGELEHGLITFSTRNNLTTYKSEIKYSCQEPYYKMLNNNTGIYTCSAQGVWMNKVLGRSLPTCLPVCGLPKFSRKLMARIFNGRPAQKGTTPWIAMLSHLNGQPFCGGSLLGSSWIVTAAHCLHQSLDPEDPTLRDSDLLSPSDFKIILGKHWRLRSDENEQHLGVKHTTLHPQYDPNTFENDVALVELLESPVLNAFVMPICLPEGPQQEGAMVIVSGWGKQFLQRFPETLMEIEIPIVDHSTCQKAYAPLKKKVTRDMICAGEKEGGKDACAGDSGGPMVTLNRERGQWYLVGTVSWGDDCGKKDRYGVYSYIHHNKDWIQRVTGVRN
From the text: (§1) The apparent dissociation constant (KD) was estimated by nonlinear regression using a 4-parameter logistic model.
(§2) Fold selectivity calculated as KD(related serine protease)/mean KD(MASP-2).

[1] = biological target: T2, Human MASP-2 CCP1/CCP2/SP H508Q 'dog-like' (human, UniProt O00187 287-686, limits assumed); assay: BLI (Octet RED96), H508Q against wild-type human MASP-2 CCP1/CCP2/SP
T2 construct: also called dog-like variant of human MASP-2; MASP-2 H508Q
T2 sequence (O00187 other isoform, or with tags, fused parts or gaps H508Q H508Q limits assumed): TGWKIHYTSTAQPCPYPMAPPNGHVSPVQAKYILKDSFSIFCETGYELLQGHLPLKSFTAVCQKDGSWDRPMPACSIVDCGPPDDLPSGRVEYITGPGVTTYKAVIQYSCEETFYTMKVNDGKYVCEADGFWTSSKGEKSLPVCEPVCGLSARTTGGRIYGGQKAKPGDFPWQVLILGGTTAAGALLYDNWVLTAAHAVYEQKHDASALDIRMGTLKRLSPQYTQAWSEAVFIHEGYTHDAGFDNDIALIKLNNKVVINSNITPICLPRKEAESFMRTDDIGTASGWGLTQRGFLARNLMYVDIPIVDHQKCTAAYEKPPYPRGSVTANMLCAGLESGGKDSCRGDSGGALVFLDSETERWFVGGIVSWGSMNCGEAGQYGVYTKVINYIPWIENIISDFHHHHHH
Protocol: (§3) All measurements were conducted with the Octet RED96 system (ForteBio) using PBS containing 1% BSA and 0.02% Tween 20 as assay buffer. […] After one step of baseline, the captured sensors were submerged into wells containing different concentrations of the target proteins (1.6-50 nM) for the association step (120 sec), and then transferred to empty wells for the dissociation step (200 sec). In all experiments, the captured sensor was also dipped in a well containing no analyte to allow single reference subtraction to compensate for the natural dissociation of the captured antibody. The recorded binding sensorgrams were analyzed with Octet data analysis software (ForteBio) to determine binding affinity (KD).

[2] = biological target: Recombinant human MASP-2 (specificity ELISA, Example 14) (human, UniProt O00187 16-686, limits assumed); assay: solid phase ELISA, immobilized protease, mean apparent KD of two lots
Sequence of Recombinant human MASP-2 (specificity ELISA, Example 14) (O00187 16-686 limits assumed): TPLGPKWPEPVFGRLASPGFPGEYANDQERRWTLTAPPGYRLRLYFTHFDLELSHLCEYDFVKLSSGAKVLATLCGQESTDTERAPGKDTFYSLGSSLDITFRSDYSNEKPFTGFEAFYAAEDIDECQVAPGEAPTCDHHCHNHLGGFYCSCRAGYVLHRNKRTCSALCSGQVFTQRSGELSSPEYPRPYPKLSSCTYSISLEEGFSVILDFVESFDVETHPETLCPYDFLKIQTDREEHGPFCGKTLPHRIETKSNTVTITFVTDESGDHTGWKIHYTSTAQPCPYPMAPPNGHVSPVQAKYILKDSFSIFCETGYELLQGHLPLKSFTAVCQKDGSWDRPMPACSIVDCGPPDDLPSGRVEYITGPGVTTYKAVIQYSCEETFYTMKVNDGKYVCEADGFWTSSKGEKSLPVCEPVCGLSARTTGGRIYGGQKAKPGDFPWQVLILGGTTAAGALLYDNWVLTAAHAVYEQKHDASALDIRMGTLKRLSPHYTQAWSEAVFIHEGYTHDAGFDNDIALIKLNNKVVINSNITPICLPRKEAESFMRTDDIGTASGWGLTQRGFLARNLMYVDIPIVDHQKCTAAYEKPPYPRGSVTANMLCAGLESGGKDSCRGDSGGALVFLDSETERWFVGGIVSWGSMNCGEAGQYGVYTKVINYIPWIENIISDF
From the text: as §1, §2

MASP-3 = biological target: T3, MASP-3 (human, UniProt P48740-2 20-728, limits assumed); assay: as above
T3 construct: Species read from 'Recombinant human MASP-2 or C1r, C1s, CFD, MASP-1 and MASP-3'
T3 sequence (looked up): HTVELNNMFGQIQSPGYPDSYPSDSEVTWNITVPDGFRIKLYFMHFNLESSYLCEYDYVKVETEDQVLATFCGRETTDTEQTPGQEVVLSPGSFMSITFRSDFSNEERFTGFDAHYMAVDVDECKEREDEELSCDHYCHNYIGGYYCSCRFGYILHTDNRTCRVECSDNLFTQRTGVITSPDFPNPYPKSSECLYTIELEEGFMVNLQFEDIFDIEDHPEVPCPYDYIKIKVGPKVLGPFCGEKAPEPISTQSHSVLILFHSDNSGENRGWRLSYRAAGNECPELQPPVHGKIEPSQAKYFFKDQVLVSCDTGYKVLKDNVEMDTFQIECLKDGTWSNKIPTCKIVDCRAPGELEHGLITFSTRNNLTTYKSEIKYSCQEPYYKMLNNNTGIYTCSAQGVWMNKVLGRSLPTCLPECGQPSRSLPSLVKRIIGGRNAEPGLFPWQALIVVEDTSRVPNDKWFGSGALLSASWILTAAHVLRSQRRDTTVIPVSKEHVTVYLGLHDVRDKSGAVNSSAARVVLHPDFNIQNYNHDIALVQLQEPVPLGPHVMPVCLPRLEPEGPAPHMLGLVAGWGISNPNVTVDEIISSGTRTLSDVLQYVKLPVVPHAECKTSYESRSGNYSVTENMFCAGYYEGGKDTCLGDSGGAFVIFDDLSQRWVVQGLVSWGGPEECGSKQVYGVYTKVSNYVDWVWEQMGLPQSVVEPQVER
From the text: as §1, §2

CFD = biological target: T4, CFD (human, UniProt P00746 26-253, limits assumed); assay: as above
T4 construct: Species read from 'Recombinant human MASP-2 or C1r, C1s, CFD, MASP-1 and MASP-3'; also called factor D; complement factor D
T4 sequence (P00746 26-253 limits assumed): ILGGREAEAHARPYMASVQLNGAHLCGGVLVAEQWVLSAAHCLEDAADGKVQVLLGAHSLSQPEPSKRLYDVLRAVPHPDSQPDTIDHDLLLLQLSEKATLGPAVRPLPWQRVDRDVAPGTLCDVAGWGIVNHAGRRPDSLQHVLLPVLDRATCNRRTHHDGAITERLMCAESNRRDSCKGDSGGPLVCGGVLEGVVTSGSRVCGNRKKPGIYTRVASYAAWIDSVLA
From the text: as §1, §2

[3] = biological target: Mouse MASP-2 CCP1/CCP2/SP (mouse, UniProt Q91WP0 287-685, limits assumed); assay: BLI (Octet RED96), OMS858 on anti-human Fc capture sensors, MASP-2 protein 1.6-50 nM
Sequence of Mouse MASP-2 CCP1/CCP2/SP (Q91WP0 other isoform, or with tags, fused parts or gaps limits assumed): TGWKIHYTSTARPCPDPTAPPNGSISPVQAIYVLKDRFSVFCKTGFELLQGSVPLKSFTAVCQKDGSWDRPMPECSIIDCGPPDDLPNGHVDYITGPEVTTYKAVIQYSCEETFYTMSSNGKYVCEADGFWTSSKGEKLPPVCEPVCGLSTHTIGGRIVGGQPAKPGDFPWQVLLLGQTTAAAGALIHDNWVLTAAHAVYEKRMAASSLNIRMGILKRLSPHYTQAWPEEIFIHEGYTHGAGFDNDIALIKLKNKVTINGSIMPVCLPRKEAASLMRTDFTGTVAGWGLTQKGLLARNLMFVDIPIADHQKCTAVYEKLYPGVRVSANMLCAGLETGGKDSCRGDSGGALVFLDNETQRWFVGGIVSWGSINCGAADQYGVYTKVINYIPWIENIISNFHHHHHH
Protocol: as §3

[4] = biological target: T5, Human MASP-2 CCP1/CCP2/SP (6xHis, E. coli, Example 10) (human, UniProt O00187 287-686, limits assumed); assay: as above
T5 construct: Expressed in BL21(DE3)pLysS E. coli and purified by IMAC; It may be the same protein as m6; also called catalytic fragment (CCP1-CCP2-SP domains) of human MASP-2; wild-type human H508
T5 sequence (O00187 other isoform, or with tags, fused parts or gaps limits assumed): as the sequence (O00187 other isoform, or with tags, fused parts or gaps H508Q H508Q limits assumed) above, with Q222H counted along it
Protocol: as §3

[5] = biological target: T2, Human MASP-2 CCP1/CCP2/SP H508Q …; assay: as above
Protocol: as §3

Cyno MASP-2 CCP1/CCP2/SP = biological target: T6, Cyno MASP-2 CCP1/CCP2/SP (cynomolgus monkey, UniProt O00187 287-686 (human entry), limits assumed); assay: as above
T6 construct: also called cynomolgus monkey MASP-2 CCP1/CCP2/SP
T6 sequence (O00187 other isoform, or with tags, fused parts or gaps limits assumed): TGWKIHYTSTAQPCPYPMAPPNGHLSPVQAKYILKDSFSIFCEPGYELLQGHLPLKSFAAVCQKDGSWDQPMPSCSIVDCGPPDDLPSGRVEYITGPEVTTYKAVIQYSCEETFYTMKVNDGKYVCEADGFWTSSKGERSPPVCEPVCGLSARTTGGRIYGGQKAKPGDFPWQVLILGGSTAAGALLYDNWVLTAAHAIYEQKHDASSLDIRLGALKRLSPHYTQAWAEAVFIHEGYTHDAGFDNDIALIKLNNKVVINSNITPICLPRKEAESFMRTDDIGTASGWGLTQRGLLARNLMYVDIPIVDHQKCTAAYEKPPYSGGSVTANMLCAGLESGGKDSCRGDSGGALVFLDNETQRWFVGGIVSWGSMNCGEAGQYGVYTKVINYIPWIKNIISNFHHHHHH
Protocol: as §3

B1: mAb OMS858 (humanized anti-MASP-2 antibody) (antibody, V domains shown)
VH: QVQLVQSGAEVKKPGASVKVSCKASGYTFTNHHMHWLRQAPGQGLEWIGDIDASDSETHYIEKFKDRATLTIDKSSSTAYMELSSLRSEDTAVYYCARGDITTTLRYFDVWGQGTLVTVSS
VL: DIQLTQSPSSLSASVGDRVTITCSASSSVRYMYWYQQKPGKAPKLLIYDTSNLASGVPSRFSGSGSGTDNTLTISSLQPEDFATYYCQQWSSYPLTFGQGTKVEIKR
notes: also called antibody OMS858; biotinylated OMS858
Q: Which results are given for B1?
A: Fold selectivity (KD related serine protease / mean KD MASP-2) (MASP-1): > 2000 fold; fold reduction of binding affinity against wild-type human MASP-2 CCP1/CCP2/SP [1]: ~450 fold; Kd [2]: 0.047 µg/mL; Kd (MASP-3): > 100 µg/mL; Kd (CFD): > 100 µg/mL; Kd [3]: 32.9 nM; Kd [4]: 4.52 nM; Kd [5]: ~2000 nM; Kd (Cyno MASP-2 CCP1/CCP2/SP): 8.23 nM
